Assay results reported in paper PMC9330763.

Target: SAd36 fiber-T4 fibritin-SpT (simian (chimpanzee) adenovirus species E serotype 36 (SAd36) | bacteriophage T4)
Assay: SDS-PAGE without boiling

SAd36 fiber-T4 fibritin-SpT
stoichiometry N: 3
